In patent publication US20140242093A1, “METHODS AND COMPOSITIONS FOR MODULATING THE INNATE IMMUNE RESPONSE AND/OR MYOGENESIS IN A MAMMALIAN SUBJECT” (FRED HUTCHINSON CANCER RESEARCH CENTER, priority 2011, published 2014):
Several values for one entry are separate records, joined by “and”; a condition that tells them apart may be missing. Equal entries are not always repeated.

Experiments:
[1] = system: Cultured control myoblasts; test: Beta-defensin 3 on myoblasts in growth media, expression arrays and MSTN qPCR; format: cell-based, human
Procedure: Cultured control myoblasts were grown at 50% confluence and treated with 1 μM human β-defensin 3. Equivalent volume of vehicle (water) was added to myoblasts for the control condition. Quadruplicate samples of control- and DEFB103-treated myoblasts were assessed for global expression changes on HumanHT-12 v4 Expression BeadChip Whole Genome arrays and analyzed as described in main methods. Differential expression of myostatin (MSTN) was confirmed by real-time qPCR.

[2] = system: Cultured primary muscle cells; test: Beta-defensin 3 and myotube formation, immunostaining for myosin heavy chain; format: cell-based; settings: 0.5 uM, 72 hours in differentiation medium
Procedure: Cultured primary muscle cells were cultured in differentiation medium for 72 hours in the presence or absence of 0.5 uM Human β-defensin 3.

[3] = system: control myoblasts in differentiation media
Procedure: Cultured control myoblasts were grown to confluence and switched to differentiation media (as described in Snider et al., 2010). 24 hours later, media was refreshed and either supplemented with 1 μM human β-defensin 3 or equivalent volume of water. Media was refreshed again at 48 hours. Cells were differentiated for a total of 72 hours. Quadruplicate samples were analyzed by expression microarrays as described above.

[4] = system: Cultured control human myoblasts; test: Beta-defensin 3 and innate immune response, real-time qPCR of IFIH1, ISG20, DEFB103; format: cell-based
Procedure: Cultured control human myoblasts were grown to 80% confluence and infected with equivalent titers of lenti-GFP, lenti-DUX4-s and lenti-DUX4-fl in growth media supplemented with 8 μg/mL polybrene. Expression of innate immune responsive genes including IFIH1 (MDA5), ISG20 and DEFB103 were assessed by real-time qPCR as previously described at 24 hours (primer sequences below). For conditioned media, cells were infected with lenti-DUX4-fl for 12 hours, thoroughly washed 3 times with PBS and switched to fresh growth media to condition for 12 hours. Control conditioned media was produced from cells not infected with any lentivirus. Myoblasts were infected with lenti-GFP in either control conditioned media, lenti-DUX4-fl conditioned media or regular growth media supplemented with 1 μM human β-defensin 3 (Peptides International, Louisville, Ky.). Expression of innate immune responsive genes were examined after 24 hours.

B1: DEFB103: human β-defensin 3 peptide (Peptides International), polypeptide SEQ ID NO:178 (peptide, listed as Homo sapiens)
chain: MRIHYLLFALLFLFLVPVPGHGGIINTLQKYYCRVRGGRCAVLSCLPKEEQIGKCSTRGRKCCRRKK
[1]; RT-qPCR, myoblasts
  mRNA for myostatin: increased the mRNA for myostatin
[1]; expression arrays, 2-fold change threshold
  gene expression changes in myoblasts: did not alter the expression of any genes
[1]; expression arrays, myoblasts
  myostatin upregulation: approximately 50%
[2]
  muscle cell fusion and myosin heavy chain expression: inhibits muscle cell fusion and expression of myosin heavy chain
[3]
  log2 FC defMT/MT, CYP2J2: −1.05
[3]; RT-qPCR, FIG. 11
  expression of muscle differentiation genes (ACTA1, CKM, CASQ2, MYH2, TNNT3): inhibits the expression of genes necessary for normal muscle differentiation
[3]; differentiating muscle cells vs untreated control
  number of genes with reduced expression: 44 genes
[3]; gene ACTA1, log2 ratio of expression in DEFB103 treated muscle cells compared to control muscle cells, differentiation media
  log2 FC defMT/MT, ACTA1: −2.65
[3]; gene AIF1L, DEFB103 treated vs control differentiating muscle cells
  log2 FC defMT/MT, AIF1L: −1.16
[3]; gene AKR1C2, DEFB103 treated vs control differentiating muscle cells
  log2 FC defMT/MT, AKR1C2: 1.41
[3]; gene ANGPTL4, DEFB103 treated vs control differentiating muscle cells
  log2 FC defMT/MT, ANGPTL4: 1.21
[3]; gene ARPP-21, DEFB103 treated vs control differentiating muscle cells
  log2 FC defMT/MT, ARPP-21: −1.06
[3]; gene ATP2A2, DEFB103 treated vs control differentiating muscle cells
  log2 FC defMT/MT, ATP2A2: −1.04
[3]; gene CACNG1, DEFB103 treated vs control differentiating muscle cells
  log2 FC defMT/MT, CACNG1: −1.58
[3]; gene CASQ2, DEFB103 treated vs control differentiating muscle cells
  log2 FC defMT/MT, CASQ2: −2.00
[3]; gene CKB, DEFB103 treated vs control differentiating muscle cells
  log2 FC defMT/MT, CKB: −1.16
[3]; gene CKM, DEFB103 treated vs control differentiating muscle cells
  log2 FC defMT/MT, CKM: −1.90
[3]; gene CTGF, DEFB103 treated vs control differentiating muscle cells
  log2 FC defMT/MT, CTGF: −1.12
[3]; gene DKK1, DEFB103 treated vs control differentiating muscle cells
  log2 FC defMT/MT, DKK1: 1.22
[3]; gene ENO3 (two array entries), DEFB103 treated vs control differentiating muscle cells
  log2 FC defMT/MT, ENO3: −1.51 and −1.47
[3]; gene FOLR1 (two array entries), DEFB103 treated vs control differentiating muscle cells
  log2 FC defMT/MT, FOLR1: −1.10 and −1.03
[3]; gene HBEGF, DEFB103 treated vs control differentiating muscle cells
  log2 FC defMT/MT, HBEGF: −1.10
[3]; gene HES6, DEFB103 treated vs control differentiating muscle cells
  log2 FC defMT/MT, HES6: −1.24
[3]; gene HFE2, DEFB103 treated vs control differentiating muscle cells
  log2 FC defMT/MT, HFE2: −1.04
[3]; gene HMOX1, DEFB103 treated vs control differentiating muscle cells
  log2 FC defMT/MT, HMOX1: 1.66
[3]; gene HRC, DEFB103 treated vs control differentiating muscle cells
  log2 FC defMT/MT, HRC: −1.40
[3]; gene IL32, DEFB103 treated vs control differentiating muscle cells
  log2 FC defMT/MT, IL32: −1.03
[3]; gene LMCD1, DEFB103 treated vs control differentiating muscle cells
  log2 FC defMT/MT, LMCD1: −1.03
[3]; gene LOC389827 (two array entries), DEFB103 treated vs control differentiating muscle cells
  log2 FC defMT/MT, LOC389827: −1.48 and −1.38
[3]; gene MME, DEFB103 treated vs control differentiating muscle cells
  log2 FC defMT/MT, MME: 1.27
[3]; gene MT1X, DEFB103 treated vs control differentiating muscle cells
  log2 FC defMT/MT, MT1X: 1.65
[3]; gene MYBPH, DEFB103 treated vs control differentiating muscle cells
  log2 FC defMT/MT, MYBPH: −1.49
[3]; gene MYH3, DEFB103 treated vs control differentiating muscle cells
  log2 FC defMT/MT, MYH3: −2.20
[3]; gene MYH7, DEFB103 treated vs control differentiating muscle cells
  log2 FC defMT/MT, MYH7: −1.73
[3]; gene MYH8, DEFB103 treated vs control differentiating muscle cells
  log2 FC defMT/MT, MYH8: −2.62
[3]; gene MYL1 (two array entries), DEFB103 treated vs control differentiating muscle cells
  log2 FC defMT/MT, MYL1: −1.18 and −1.11
[3]; gene MYL6B, DEFB103 treated vs control differentiating muscle cells
  log2 FC defMT/MT, MYL6B: −1.00
[3]; gene MYLPF, DEFB103 treated vs control differentiating muscle cells
  log2 FC defMT/MT, MYLPF: −1.53
[3]; gene MYOM1, DEFB103 treated vs control differentiating muscle cells
  log2 FC defMT/MT, MYOM1: −1.20
[3]; gene NDRG1, DEFB103 treated vs control differentiating muscle cells
  log2 FC defMT/MT, NDRG1: 1.01
[3]; gene PLIN2 (two array entries), DEFB103 treated vs control differentiating muscle cells
  log2 FC defMT/MT, PLIN2: 1.61 and 1.79
[3]; gene PRAGMIN, DEFB103 treated vs control differentiating muscle cells
  log2 FC defMT/MT, PRAGMIN: −1.10
[3]; gene RASSF4, DEFB103 treated vs control differentiating muscle cells
  log2 FC defMT/MT, RASSF4: −1.03
[3]; gene SMPX, DEFB103 treated vs control differentiating muscle cells
  log2 FC defMT/MT, SMPX: −1.76
[3]; gene SMYD1, DEFB103 treated vs control differentiating muscle cells
  log2 FC defMT/MT, SMYD1: −1.07
[3]; gene TNNC1, DEFB103 treated vs control differentiating muscle cells
  log2 FC defMT/MT, TNNC1: −1.45
[3]; gene TNNC2, DEFB103 treated vs control differentiating muscle cells
  log2 FC defMT/MT, TNNC2: −1.49
[3]; gene TNNT1, DEFB103 treated vs control differentiating muscle cells
  log2 FC defMT/MT, TNNT1: −1.00
[3]; gene TNNT3 (two array entries), DEFB103 treated vs control differentiating muscle cells
  log2 FC defMT/MT, TNNT3: −1.55 and −1.52
[3]; gene TPM2, DEFB103 treated vs control differentiating muscle cells
  log2 FC defMT/MT, TPM2: −1.41
[3]; gene VASH2, DEFB103 treated vs control differentiating muscle cells
  log2 FC defMT/MT, VASH2: −1.22
[3]; gene ZFP106, DEFB103 treated vs control differentiating muscle cells
  log2 FC defMT/MT, ZFP106: −1.09
[4]; RT-qPCR of IFIH1 and ISG20, FIG. 8
  induction of innate immune genes by lenti-GFP: inhibited the induction of the innate immune response to lenti-GFP
[4]; copies of viral integrants and GFP mRNA
  viral entry and transduction: did not prevent viral entry and transduction
